The test system of series [1] is liver CD11b+ cells. Kind of series: Doxorubicin uptake by liver CD11b+ cells in treated mice (flow cytometry). The class given is in vivo. The conditions noted are these: flow cytometry of digested liver cells.
The test system of series [2] is E0771 tumor cells. As to the kind of experiment: E0771 breast cancer mouse model, DOXIL plus MARCO blockade. The class given is in vivo, mice. The conditions noted are these: DOXIL 2 mg/kg + SRCR 0.3 mg/kg. The protocol: For this study, one million E0771 tumor cells were implanted in young female C57BL6 mice (aged 6 weeks old). Tumor growth was measured every 3 days with calipers. Tumor volume was calculated as: Volume=0.5×Length× Width^2. When tumor volume reached around 60-80 mm^3 the treatment was started. The mice were treated with Doxil (DOXIL®, 2 mg/kg) or DOXIL® plus MARCO blockade agent (MARCO recombinant protein, SRCR domain, 0.3 mg/kg). 0.9% sodium chloride was used as a control. All agents were injected intravenously 2 times each week for a total of 5 treatments. FIGS. 9A and 33A-33B show growth curves for the E0771 mice treated by DOXIL® or DOXIL® plus MARCO blockade. n=5-6 mice in each treatment arm. Un-paired t-test was used to compare tumor volumes at day 18. […] FIGS. 33C-33D show survival curves of young and old mice bearing E0771 tumors in the groups treated with Doxil (DOXIL®, 2 mg/kg) or DOXIL® plus MARCO blockade agent (MARCO recombinant protein, SRCR domain, 0.3 mg/kg).
Control vs. MARCO or Doxil vs. DoxM were compared with unpaired/tests. Error bars are means±S.E.M. The present inventors used the same experimental setup with the breast E0771 tumor model and treatment doses as the young animals (DOXIL®, 2 mg/kg, and/or MARCO protein scavenger receptor cysteine-rich (SRCR) domain, 0.3 mg/kg).

Series [3] has as its system macrophages. As to the kind of experiment: Nanoparticle uptake (phagocytosis) by macrophages after MARCO knockdown or blockade. The conditions noted are these: with or without incubation with recombinant MARCO protein. The class given is cell-based, mouse. The protocol:
The effect of MARCO expression on nanoparticle uptake by macrophages in vitro was tested. […] On day 5 following macrophage collection and culture, the siRNAs were mixed with the DharmaFECT 4 transfection reagent (Horizon, T-2004-02) at a final concentration of 100 nM, after which the cells were incubated with the siRNA for 48 hours. The siRNAs used in this study were as follows: Control siRNA (Cell Signaling Technology, 6568S) and Marco siRNA (Millipore Sigma, SASI_Mm01_00200135, SASI_Mm02_00319301).
Scale bar=50 μm. White arrows indicate cells that have taken up nanoparticles. […] Unpaired t-test.
For the nanoparticle phagocytosis assay, cells were plated in Costar 24-well Clear Flat Bottom Ultra-Low Attachment Multiple Well Plates (Corning, 3473) at a density of 10^5 cells/well. Nanoparticles or drug were added to the wells at the following concentrations: nanoparticles, 10^2-10^4/cell; Abraxane, 1 μg/mL; doxorubicin (Doxil), 20 μg/mL. Plates were then transferred to a cell culture incubator, and 2 hours later the cells were collected and washed followed by fixation with 4% paraformaldehyde. The cells were stained with fluorescence-labeled antibodies and analyzed by flow cytometry. The mean fluorescence intensity or the percentage of fluorescence-positive cells was used to compare the uptake of nanoparticles or drug.

In series [4] the target is T1, MARCO (Mus musculus, UniProt Q60754).
T1 construct: secretion signal peptide (N); host or cells: Expi293 cells
T1 sequence (Q60754 with tags, fused parts or gaps): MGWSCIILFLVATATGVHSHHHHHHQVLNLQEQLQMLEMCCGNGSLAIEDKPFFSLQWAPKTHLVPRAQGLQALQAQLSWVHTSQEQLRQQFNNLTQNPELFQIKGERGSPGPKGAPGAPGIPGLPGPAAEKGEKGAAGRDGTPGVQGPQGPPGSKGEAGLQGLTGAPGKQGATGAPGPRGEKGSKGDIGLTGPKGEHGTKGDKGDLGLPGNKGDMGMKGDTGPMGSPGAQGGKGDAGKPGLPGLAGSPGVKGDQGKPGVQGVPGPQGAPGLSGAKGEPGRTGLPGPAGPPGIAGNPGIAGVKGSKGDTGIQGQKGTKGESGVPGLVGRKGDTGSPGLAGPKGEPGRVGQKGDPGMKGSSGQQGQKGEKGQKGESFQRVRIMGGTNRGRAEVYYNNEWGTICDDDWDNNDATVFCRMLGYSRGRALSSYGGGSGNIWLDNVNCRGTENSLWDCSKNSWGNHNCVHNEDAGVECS
As to the kind of experiment: Binding of nanoparticles with additional MARCO after saturation. The conditions noted are these: pre-incubation with saturation doses of SRCR or ECD. The protocol: (§1) Consistent with a previous report (Brannstrom, A., et al. 2002. Biochem Biophys Res Commun 290, 1462-1469), the SRCR^R→A and SRCR^Δ mutations of MARCO were not expressed. […] Next, the binding capacity of MARCO to particles and nanomedicine was tested. Centrifugal filters were used to isolate unbound MARCO after incubating the SRCR (0.1 mg/mL) with different concentrations of nanoparticles. The MARCO recombinant proteins (0.1 mg/mL SRCR, 0.5 mg/mL ECD, or 0.4 mg/mL ECD^Δ) were incubated with nab-paclitaxel (5 mg/mL, paclitaxel concentration). After 15 min at room temperature with gentle shaking, the mixture was further incubated with the Dynabeads His-Tag isolation and Pulldown (ThermoFisher, Cat. #10103D). After magnetic separation and three washes with PBS, the beads were boiled in western blot sample buffer for subsequent western blotting. Primary antibodies used for western blots were albumin, CST, Cat. #4929, 1:1000; and His-Tag, CST, Cat. #2365, 1:1000. To test the binding capacity of MARCO, 0.1 mg/mL of SRCR was incubated for 15 min at room temperature with different concentrations of nab-paclitaxel or nanoparticles. The mixture was centrifuged through a 30-kDa cutoff filter (Millipore, UFC903096) at 1000 g for 30 minutes. The unbound SRCR in the lower part of the tube was examined by western blotting. […]

In series [5] the test system is nab-paclitaxel. As to the kind of experiment: Pull-down of nab-paclitaxel by recombinant MARCO proteins (Western blot of albumin). The series is classed as binding. The conditions noted are these: 0.1 mg/mL SRCR, 0.5 mg/mL ECD or 0.4 mg/mL ECD^Δ with nab-paclitaxel 5 mg/mL, His-tag pulldown. The protocol:
as §1

For series [6], the system named is E0771 tumor cells. As to the kind of experiment: E0771 breast cancer mouse model, ABRAXANE plus MARCO blockade. The class given is in vivo, mice. The protocol:
For this study, one million E0771 tumor cells were implanted in young female C57BL6 mice (aged 6 weeks old). Tumor growth was measured every 3 days with calipers. Tumor volume was calculated as: Volume=0.5×Length×Width^2. When tumor volume reached around 60-80 mm^3 the treatment was started. The mice were treated with paclitaxel-protein particles (ABRAXANE®, 20 mg/kg) or ABRAXANE® plus MARCO blockade agents (anti-MARCO antibody, 2.5 mg/kg; ECD (extracellular domain), MARCO protein extracellular domain, 1.5 mg/kg; SRCR, or MARCO protein scavenger receptor cysteine-rich (SRCR) domain, 0.3 mg/kg). IgG plus 0.9% sodium chloride was used as a control.
One-way analysis of variance with post hoc testing was used to compare tumor volumes at day 18 after treatment. Error bars are means±S.E.M. We used the same experimental setup with the breast E0771 tumor model and treatment doses as the young animals (ABRAXANE®, 20 mg/kg, and/or MARCO protein scavenger receptor cysteine-rich (SRCR) domain, 0.3 mg/kg).
To determine the specificity of the effects of recombinant MARCO protein blockade, additional control experiments in which mouse serum protein was used as an irrelevant protein control and the ECD^Δ as the minimal-binding MARCO control were performed.

On the set-up of series [7]: species or system mice. The conditions noted are these: mouse, in vivo, iv. The protocol:
Anti-MARCO, monoclonal MARCO antibody, clone ED31, 2.5 mg/kg; rMARCO, recombinant MARCO protein SRCR domain, 0.3 mg/kg; NP, 100 nm nanoparticles, 10^11 particles injected through tail vain. n=3 mice for each treatment group at each time point. One way ANOVA with correction for multiple comparison was used to compare the difference between NP and other treatment groups. Error bars are means±SD.
Blockade of MARCO-nanoparticle interaction decreased nanoparticle uptake by liver in mice. Two strategies for blocking the MARCO-nanoparticle interaction were tested: with antibody to directly block the MARCO receptors on the cell or with recombinant MARCO protein to saturate the MARCO binding capacity of the particles. Young female C57BL6 background mice (aged 6 weeks) were intravenously injected with fluorescence-labelled 100 nm PEGylated polystyrene nanoparticles (NP, 10^11 particles per 20 g of body weight) with or without recombinant MARCO protein (SRCR domain, 0.3 mg/kg). Liver IVIS imaging was done 4 h after the injection. […] Unpaired t-test.

From patent US20260102468A1, “COMPOSITIONS AND METHODS FOR MARCO INHIBITION AND IMPROVED DRUG DELIVERY” (BOARD OF REGENTS, THE UNIVERSITY OF TEXAS SYSTEM, priority 2022, published 2026) come the findings set out here.

`COc1cccc2c1C(=O)c1c(O)c3c(c(O)c1C2=O)C[C@@](O)(C(=O)CO)C[C@@H]3O[C@H]1C[C@H](N)[C@H](O)[C@H](C)O1` [doxorubicin]: the “doxorubicin uptake by liver CD11b+ cells, young versus old mice” value in series [1] is recorded as “took up more doxorubicin than did the older mice”.

B1: SRCR: recombinant mouse MARCO protein scavenger receptor cysteine-rich (SRCR) domain, SEQ ID NO: 2 (protein)
chain: MGWSCIILFLVATATGVHSHHHHHHQRVRIMGGTNRGRAEVYYNNEWGTICDDDWDNNDATVFCRMLGYSRGRALSSYGGGSGNIWLDNVNCRGTENSLWDCSKNSWGNHNCVHNEDAGVECS
modifications: MARCO SRCR
As to B1, the “treatment outcome of Doxil, older mice” value in series [2] (C57BL6 aged 50 weeks) is recorded as “does not enhance the treatment outcome of Doxil in older mice”. For the same molecule, the “relative doxorubicin concentrations in tumors” value in series [2] (Doxil fluorescence intensity per mg of tissue, IVIS) was “increased the relative doxorubicin concentrations in tumors”. In addition, the “nanoparticle uptake by macrophages with recombinant MARCO protein” value in series [3] was “decreased nanoparticle uptake by macrophages”. For the same molecule, the “binding of nanoparticles with additional MARCO after saturation with recombinant MARCO” value in series [4] is reported as “could not bind with additional MARCO”. The binding with nab-paclitaxel entry in series [5] is reported as “could strongly bind with nab-paclitaxel”. The “treatment outcome of ABRAXANE, older mice” value in series [6] (C57BL6 aged 50 weeks, ABRAXANE 20 mg/kg, SRCR 0.3 mg/kg or anti-MARCO antibody, day 18) is on record as “does not enhance the treatment outcome of abraxane in older mice”. For the same molecule, in series [6] (nab-paclitaxel 20 mg/kg, SRCR 3 mg/kg vs 0.3 mg/kg), the “efficacy of combination treatment at increased SRCR concentration” value is on record as “nor did further increasing the concentration of SRCR enhance the efficacy of combination treatment”. Further, in series [6] (young (6 weeks) female C57BL6, ABRAXANE 20 mg/kg i.v., antibody 2.5, ECD 1.5, SRCR 0.3 mg/kg, day 18), the “therapeutic effect of ABRAXANE (tumor growth inhibition), young mice” value is on record as “enhanced the inhibition of tumor growth in young mice treated with nab-paclitaxel”. Also, in series [7], the “number of nanoparticles in the liver” value is on record as “significantly reduced the number of nanoparticles in the liver”.
